Values belong to the molecule of their own block, whether it stands above or below them.
Legend:
Assay in all cases: pull-down
[1] = biological target: GST-fused human eIF2β (GST-eIF2β) (human) (UniProt P20042)
[2] = biological target: GST-5MP1-7A (7 alanine substitutions in AA-box 2) (human) (UniProt Q9Y6E2)
[3] = biological target: human eIF2 purified from HeLa cells (human, UniProt P05198 1-315; P20042 1-333; P41091 1-472)
Chain of human eIF2 purified from HeLa cells (human, UniProt P05198 1-315; P20042 1-333; P41091 1-472) (P05198 whole entry, chain 1 of 3): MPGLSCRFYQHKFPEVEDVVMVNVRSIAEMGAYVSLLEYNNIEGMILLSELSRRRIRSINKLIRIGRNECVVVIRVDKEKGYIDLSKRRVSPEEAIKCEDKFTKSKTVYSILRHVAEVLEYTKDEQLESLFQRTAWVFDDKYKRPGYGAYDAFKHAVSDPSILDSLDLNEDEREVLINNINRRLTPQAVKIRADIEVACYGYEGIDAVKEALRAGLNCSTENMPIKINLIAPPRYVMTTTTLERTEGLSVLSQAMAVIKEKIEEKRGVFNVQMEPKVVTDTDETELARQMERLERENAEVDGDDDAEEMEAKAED
Chain of human eIF2 purified from HeLa cells (human, UniProt P05198 1-315; P20042 1-333; P41091 1-472) (P20042 whole entry, chain 2 of 3): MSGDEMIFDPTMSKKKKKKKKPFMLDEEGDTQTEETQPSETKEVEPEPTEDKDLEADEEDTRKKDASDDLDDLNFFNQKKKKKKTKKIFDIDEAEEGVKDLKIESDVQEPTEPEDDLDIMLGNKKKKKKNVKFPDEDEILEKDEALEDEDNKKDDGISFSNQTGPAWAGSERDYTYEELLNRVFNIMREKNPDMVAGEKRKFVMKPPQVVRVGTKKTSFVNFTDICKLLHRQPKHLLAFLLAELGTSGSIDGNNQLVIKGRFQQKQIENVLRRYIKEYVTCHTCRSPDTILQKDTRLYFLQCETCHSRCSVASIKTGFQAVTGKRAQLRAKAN
Chain of human eIF2 purified from HeLa cells (human, UniProt P05198 1-315; P20042 1-333; P41091 1-472) (P41091 whole entry, chain 3 of 3): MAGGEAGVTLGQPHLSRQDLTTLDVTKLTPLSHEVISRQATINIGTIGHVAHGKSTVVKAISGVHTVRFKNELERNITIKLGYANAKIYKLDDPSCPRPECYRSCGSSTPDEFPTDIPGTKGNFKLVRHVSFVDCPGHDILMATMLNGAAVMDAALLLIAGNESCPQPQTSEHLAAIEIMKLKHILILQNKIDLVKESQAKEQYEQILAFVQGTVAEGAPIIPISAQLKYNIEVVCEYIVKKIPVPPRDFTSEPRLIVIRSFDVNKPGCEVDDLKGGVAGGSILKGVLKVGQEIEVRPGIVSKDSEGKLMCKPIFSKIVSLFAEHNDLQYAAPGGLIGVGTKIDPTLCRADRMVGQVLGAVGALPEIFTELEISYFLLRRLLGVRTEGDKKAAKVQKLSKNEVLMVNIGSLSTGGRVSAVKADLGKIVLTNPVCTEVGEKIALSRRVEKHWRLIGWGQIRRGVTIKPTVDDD

Chain of GST-fused human eIF2β (GST-eIF2β) (human) (P20042 whole entry, the tested form may be a part): as the sequence (P20042 whole entry, chain 2 of 3) above

fold reduction of binding against wild-type FL-5MP1 [1]: 2 fold
Molecule: FL-5MP1-7A (FLAG-tagged 5MP1 with the AA-box 2 mutation 7A) (from UniProt Q9Y6E2 1-419) (natural protein)

fold reduction of binding against wild-type GST-5MP1 [2]: > 2 fold
Molecule: human eIF2 purified from HeLa cells (from UniProt P05198 1-315; P20042 1-333; P41091 1-472) (complex)

binding result [3]: binds
B1: GST-5MP1 fusion protein (human eIF5-mimic protein 1) (natural protein, UniProt Q9Y6E2 1-419, looked up)
chain: MNKHQKPVLTGQRFKTRKRDEKEKFEPTVFRDTLVQGLNEAGDDLEAVAKFLDSTGSRLDYRRYADTLFDILVAGSMLAPGGTRIDDGDKTKMTNHCVFSANEDHETIRNYAQVFNKLIRRYKYLEKAFEDEMKKLLLFLKAFSETEQTKLAMLSGILLGNGTLPATILTSLFTDSLVKEGIAASFAVKLFKAWMAEKDANSVTSSLRKANLDKRLLELFPVNRQSVDHFAKYFTDAGLKELSDFLRVQQSLGTRKELQKELQERLSQECPIKEVVLYVKEEMKRNDLPETAVIGLLWTCIMNAVEWNKKEELVAEQALKHLKQYAPLLAVFSSQGQSELILLQKVQEYCYDNIHFMKAFQKIVVLFYKADVLSEEAILKWYKEAHVAKGKSVFLDQMKKFVEWLQNAEEESESEGEEN

Source: article PMC3201852 (Nucleic Acids Research, 2011)
